Measurements published in PMC7722741, “The bacterial multidrug resistance regulator BmrR distorts promoter DNA to activate transcription”.

Target: BmrR;RNAP-sigmaA holoenzyme (Bacillus subtilis;Bacillus subtilis, UniProt P39075;P20429;P37870;P37871;O35011;O31718;P06224 …, |)
Assay: EMSA; TPP 500 uM; heparin challenge; stable open complex stated in peer review file; EMSA: 10 mM HEPES pH 7.5, 100 mM KCl, 5 mM MgCl2, 3 mM DTT, 1 h room temperature, 0.75 uM RNAP, 0.5 uM DNA, 0 or 2 uM BmrR, 0 or 500 uM TPP, heparin 100 ug/ml when indicated; 5% TBE gel
Settings: protein: recombinant;native; tags: ;; chain copies: 2;2;1;1;1;1;1

B1: Pbmr-2 (mixed)
DNA 1: TTTAGAAAGATTTTGCAAATCCGTTGACTCTCCCCTAGGAGGAGGTCTTATAATGGGAGCTGTCACGGATGC
DNA 2: GCATCCGTGACAGCTCCCATTATAAGACCTCCTCCTAGGGGAGAGTCAACGGATTTGCAAAATCTTTCTAAA
  binding result: binds

B2: Pbmr-wt1 (dsDNA)
DNA 1: TTTAGAAAGATTTTGCAAATCCGTTGACTCTCCCCTAGGAGGAGGTCTTACAGTATAAGGGATACACACTTG
DNA 2: CAAGTGTGTATCCCTTATACTGTAAGACCTCCTCCTAGGGGAGAGTCAACGGATTTGCAAAATCTTTCTAAA
  binding result: binds
